In US20230272016A1, “PEPTIDES FOR IMMUNOTHERAPY” (Second Genome, Inc., priority 2020, published 2023):

Legend:
Assay type in all cases: cell-based
[1] = tested on: human purified monocyte-derived dendritic cells; assay: Chemokine release from LPS stimulated monocyte-derived dendritic cells; settings: LPS at low concentrations, suboptimal activation
Excerpt: LPS was used at low concentrations for a suboptimal activation of dendritic cells in the presence of SG-3-00802 peptide or SG-3-05021 peptide.

CCR7 = target: T1, CCR7 (Homo sapiens, UniProt P32248); assay: PathHunter β-Arrestin GPCR assay (gpcrMAX); settings: vehicle DMSO = 0%, control ligand = 100%
T1 construct: expressed in transfected cells
T1 sequence (P32248 25-378): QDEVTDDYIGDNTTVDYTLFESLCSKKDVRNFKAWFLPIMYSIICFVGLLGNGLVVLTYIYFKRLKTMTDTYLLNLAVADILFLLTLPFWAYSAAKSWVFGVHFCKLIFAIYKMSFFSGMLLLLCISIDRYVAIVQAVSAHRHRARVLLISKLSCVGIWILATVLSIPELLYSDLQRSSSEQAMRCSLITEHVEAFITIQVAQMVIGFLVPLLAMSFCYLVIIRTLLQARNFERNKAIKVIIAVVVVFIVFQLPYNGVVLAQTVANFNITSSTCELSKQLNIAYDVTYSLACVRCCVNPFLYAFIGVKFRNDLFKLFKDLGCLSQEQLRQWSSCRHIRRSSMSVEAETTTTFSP
Excerpt: (§1) The PathHunter® β-Arrestin Assay monitored activation of a panel of 168 G-protein coupled receptors (GPCRs) with […] activation of the GPCR in agonist and antagonist mode.
(§2) where the test sample is the peptide, the vehicle control=DMSO (0% activity), and the control ligand=control compound (100% activity).
(§3) Peptides SG-3-00802 and SG-3-05021 were identified as an agonist, an antagonist, a PAM (Positive Allosteric Modulator), or an inverse-agonist. Agonist, antagonist, PAM, and inverse-agonist were identified according to the guidelines in Table 18. The basal activity/noise is a % activity of −20% to 20% for both agonist and antagonist modes. A PAM (Positive Allosteric Modulator) binds to a receptor, at a different site than the agonist, to change the receptor's response to the agonist. An inverse-Agonist is a binding partner with agonistic shutting down of basal activity in the cell. An antagonist antagonizes the activity of a particular binding partner.

CXCR3 = target: T2, CXCR3 (Homo sapiens, UniProt P49682); assay: PathHunter β-Arrestin GPCR assay (gpcrMAX); settings: vehicle DMSO = 0%, control ligand = 100%
T2 sequence (P49682 1-368): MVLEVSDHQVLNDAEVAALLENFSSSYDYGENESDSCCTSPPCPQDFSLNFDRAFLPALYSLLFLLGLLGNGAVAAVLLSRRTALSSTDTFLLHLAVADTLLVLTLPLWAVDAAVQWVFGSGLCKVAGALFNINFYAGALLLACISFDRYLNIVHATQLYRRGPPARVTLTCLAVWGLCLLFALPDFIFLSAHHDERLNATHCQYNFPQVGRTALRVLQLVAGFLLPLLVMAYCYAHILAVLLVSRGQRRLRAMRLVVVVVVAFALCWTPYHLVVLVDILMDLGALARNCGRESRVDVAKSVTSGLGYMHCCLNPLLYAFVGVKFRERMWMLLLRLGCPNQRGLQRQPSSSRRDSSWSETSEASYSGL
Excerpt: as §1, §2, §3

CXCR4 = target: T3, CXCR4 (Homo sapiens, UniProt P61073); assay: PathHunter β-Arrestin GPCR assay (gpcrMAX); settings: vehicle DMSO = 0%, control ligand = 100%
T3 construct: expressed in transfected cells
Excerpt: as §1, §2, §3

T3 sequence (P61073 whole entry): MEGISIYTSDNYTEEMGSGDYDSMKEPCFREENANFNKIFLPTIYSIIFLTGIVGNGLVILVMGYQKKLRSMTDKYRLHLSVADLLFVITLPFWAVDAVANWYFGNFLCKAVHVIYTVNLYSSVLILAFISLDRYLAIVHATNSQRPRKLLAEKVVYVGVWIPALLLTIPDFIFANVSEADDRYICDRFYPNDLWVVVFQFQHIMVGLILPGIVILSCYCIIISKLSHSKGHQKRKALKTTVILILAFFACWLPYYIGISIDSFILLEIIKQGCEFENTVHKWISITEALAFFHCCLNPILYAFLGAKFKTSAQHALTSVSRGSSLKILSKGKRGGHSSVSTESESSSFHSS

| Sequence | CXCL10 chemokine release [1] | % Agonist Activity (gpcrMAX Agonist Mode) (CCR7) [%] | % Antagonist Activity (gpcrMAX Antagonist Mode) (CCR7) [%] | % Agonist Activity (gpcrMAX Agonist Mode) (CXCR3) [%] | % Antagonist Activity (gpcrMAX Antagonist Mode) (CXCR3) [%] | % Agonist Activity (gpcrMAX Agonist Mode) (CXCR4) [%] | % Antagonist Activity (gpcrMAX Antagonist Mode) (CXCR4) [%] |
| --- | --- | --- | --- | --- | --- | --- | --- |
| LGKTDWIEKYFKVKKEKIDKMQRFLQG [SG-3-05021, peptide from bacteroides.clarus.dsm.22519] | dose-dependent increase | 0 | −18 | −4 | −20 | 1 | 10 |
| MKVRPSVKPMCEKCKIIRRKGRVMVICENPKHKQRQG [SG-3-00802, peptide from oscillibacter.sp t_155102] | dose-dependent increase | – | – | – | – | – | – |
